Several values for one entry are separate records, joined by “and”; a condition that tells them apart may be missing. Equal entries are not always repeated.

What all share (test): SEC; Superdex 200 (10/300), 4°C, protein at 1 mg/mL, 20 mM HEPES-NaOH pH 7.5, 1.0 M NaCl, 20 µM ZnCl2, 5 mM β-mercaptoethanol; dimer, and dimer to tetramer
A general note: In gel filtration, larger molecules generally elute earlier.

Test [1] has as its target RSV IN(1–270) (Rous sarcoma virus (Prague A strain)).
Test [2] has as its target RSV IN(49–270) (Rous sarcoma virus (Prague A strain)).
Test [3] concerns the target RSV IN(1–270)•C23S (Rous sarcoma virus (Prague A strain)).

Turning to RSV IN(1–270) (domain or fragment), in test [1], the stoichiometry N (usually the number of molecules, sites or subunits per partner or assembly) was 2 and 4.

In test [2], RSV IN(49–270) (domain or fragment) showed a stoichiometry N of 2. For the substance RSV IN(1–270)•C23S (domain or fragment), in test [3], the stoichiometry N amounted to 2.

(Values after article PMC3579926.)
